In the supplement of paper PMC7125110:
± gives the standard error. Variants at the floor of the assay were thinned out.

B1: glmS ribozyme (parent)
chain: AUAAAAGCGCCAGAACUACAGAAAUGUAGUUGACGAGGAGGAGGUUUAUCGAAUUUUCGGCGGAUGCCUCCAAA

Variants of: B1
Assay: self-cleavage kobs at 2500 uM GlcN6P; higher = faster cleavage; RNA array
Details: with glucosamine-6-phosphate
Method in brief: (§1)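 In situ transcription by E. coli RNA polymerase produced barcoded ribozyme variants on sequenced MiSeq chips, and a hybridised Cy3 probe tracked them at 37 °C. Glucosamine-6-phosphate was flowed in at 40 μM to 10 mM in HEPES/KCl/Mg(OAc)2 buffer. kcat and KM were taken from weighted Michaelis–Menten fits of kobs values from exponential decay fits.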

Variant	self-cleavage kobs at 2500 uM GlcN6P
AUAAAAGCGCCAGAACUACAGAAAUGUAGUUUACUAGGAGGAGGUUUAUCGAGUUUUAGGCGGAUGCCUCCAAA [G32U G35U A53G C58A]	< 1e-05 s⁻¹
AUAAAAGCGCCAGAACUACAGAAAUGUAGUUGACGAGGAGGAGGUUUAUCGAAUUUUCGGCGGAAGGCUCUAAA [U65A C67G C71U]	3.53e-05 ± 1.5e-05 s⁻¹
AUAAAAGAGCCAGAACUACAGAAAUGUAGUUAUCGAGGAGGAGGUUUAUCGAAUAUUCGGCGGAUGCCUCCAAA [C8A G32A A33U U55A]	< 1e-05 s⁻¹
AUAAAAGCGCCAGAGCUACAGAAAUGUAGUGUACGAGGAGGAGGAUUAUCGAAUUUUCGGCGGAUGCCUCCAAA [A15G U31G G32U U45A]	0.000424 ± 0.00012 s⁻¹
AUAAAAGCGCCAGAACUACAGAAAUGUAGUUGAGGAGGAGGACGUGUAUCGAAUUUUCGGCGGAUGCCGCCAAA [C34G G43C U46G U69G]	< 1e-05 s⁻¹
AUAAAGGCGCCAGAACUACAGAAAUGUAGUUGACGAGGAGGCGGUUUAUCGAAUUUUCGGCGGAUGCCGCCAAA [A6G A42C U69G]	0.000462 ± 0.00019 s⁻¹
AUAAAAGCGCCAGAACUACAGAAAUGUAGUUGACAAGGAGGAGGUAUAUCGAAUUUUCGGCGGGUGCCUCCAAA [G35A U46A A64G]	< 1e-05 s⁻¹
AUAAACGCGCCAGAACUACAGAAAUGUAGUUGACGAGGAGGAGGUUUAUCGAAUGUUCUGAGGCUGCCUCCAAA [A6C U55G G59U C61A A64C]	< 1e-05 s⁻¹
AUAAAAGCGCCAGAACUACAGAAAUGUAGUUGACGAGGAGGAGGUUUAUCGAAUUUUGCGAAGAUGCCUCAAAA [C58G G59C C61A G62A C71A]	< 1e-05 s⁻¹
AUAAAAGCGCCAGAACUACAGAAAUGUAGUUGACUAGGAGUAGGUUUAUCGAAUUUUCGGCAGAUGCCUCCAAA [G35U G41U G62A]	< 1e-05 s⁻¹
AUAAAGGCGCCAGAACUACAGAAAUGUAGUUGGCGAGGAGGAGGUUUAUCGAAAUCUCGGCGGAUGCCUCCAAA [A6G A33G U54A U56C]	< 1e-05 s⁻¹
AUAAAAGCGCCAGAACUACAGAAAUGUAGUUCACCAGGAGGACGUUUAUCGAAUUUUUGGCGGAUGCCCCCAAA [G32C G35C G43C C58U U69C]	< 1e-05 s⁻¹
AUAAAAGCGCCAGAACUACAGAAAUGUAGUUGACGAGGAGGAGGUUUACCGAAUAUUCGGCCGAUGCCUCCAAA [U49C U55A G62C]	< 1e-05 s⁻¹
AUAAAAGCGCCAGCACUACAGAAAUGUAUUUGACGAGGCGGAGGUGAAUCGAAUUUUCGGCGGAUGCCUCCAAA [A14C G29U A39C U46G U47A]	< 1e-05 s⁻¹
AUAAAAGCGCCAGAGCUACAGAAAUGUAGUUGACGAGGAGGAGGUUAAUCGAAUUUUGGGCGGAUGCCUCCAAA [A15G U47A C58G]	4.72e-05 ± 1.4e-05 s⁻¹
AUAAAAGCGCCAGAACUACAGAAAUGUAGUUGACGAGGAGGAGGUCUAUCGAAUUUUCGGCGGAUACCUUCAAA [U46C G66A C70U]	0.00157 ± 0.00039 s⁻¹
AUAAAAGCGCCAGAACUACAGAAAUGUAGUUGACGAGGGUGAGGUUUAUCGAAUUAUCGGCGGAUGCCUCCAAA [A39G G40U U56A]	0.000452 ± 0.00011 s⁻¹
AUAAAAGCGCCAGAACUACAGAAAUGUAGUGGACGAGGGGGAGGUUUAUCGAAUUUACGGCGGGUGCCUCCAAA [U31G A39G U57A A64G]	5.58e-05 ± 2e-05 s⁻¹

Variant	self-cleavage kobs at 2500 uM GlcN6P
AUAAAAGCGCCAAAACUACAGAAAUGUAGUUGACGAGGUGGAGGUUUAUCGAAUUUUCGGCGGUUGCCUCCAAA [G13A A39U A64U]	< 1e-05 s⁻¹
AUAAAAGUGCCAGAACUACAGAAAUGUAGAUGACGAGGAGGAGGUGUAUCGAAUUUUCGGCGGAUGCCUCCAAA [C8U U30A U46G]	< 1e-05 s⁻¹
AUAAAAGCGCCAGAUCUACAGAAAUGUAGUUGACUAGGAGGAGGUUUCUCGAAUUUUCGGCGGUUGCCUCCAAA [A15U G35U A48C A64U]	< 1e-05 s⁻¹
AUAAAACCGCCAGAACUACAGAAAUGUAGUUGACGAGGAUGAGGUUUAUGGAAUUUUCGGCGGAUCCCUCCAAA [G7C G40U C50G G66C]	< 1e-05 s⁻¹
AUAAAAGCGCCAGAACUACAGAAAUGUAGUUGACGAACAGGCGGUUUAUCGAAUUUUCGGCGGAUGCCUCCAAA [G37A G38C A42C]	< 1e-05 s⁻¹
AUAAAAGCGCCAGAACUACAGAAAUGUAGAGGACGAGGAGGAGGUUUCUCGAAUUUUCGGCGGAUGCCUCCAAA [U30A U31G A48C]	6.79e-05 ± 1.6e-05 s⁻¹
AUAAAGGCGCCAGACCUACAGAAAUGUAGUUGACGAGGAGGAGGUUUAUCGAAUUUUCGGCGAAUGCCUCCAAA [A6G A15C G63A]	< 1e-05 s⁻¹
AUAAAAGCGCCAGCACUACAGAAAUGUAGUUGACGAGGAGGAAGUUUAUCGAAUUUUCGGUGGAUGCCUCCAAA [A14C G43A C61U]	< 1e-05 s⁻¹
AUAAAAUCGGCCGAACUACAGAAAUGUAGUUGACGAGGAGGCGGUUUAUCGAAUUUUCGGCUGAUGCCUCCAAA [G7U C10G A12C A42C G62U]	< 1e-05 s⁻¹
AUAAAAGCGCCAGAUCUACAGAAAUGUAGUUGACGAGGAGAAGGUUUAUGGAAUUUUCGGCGGAUGCCUCUAAA [A15U G41A C50G C71U]	< 1e-05 s⁻¹
AUAAAAGCGCCAGAACUACAGAAAUGUAGUUGACGAGGAGGUGUUUUAUCGAAUUUUCGGCGGACGCCUCCAAA [A42U G44U U65C]	< 1e-05 s⁻¹
AUAAAAGCGCUAGAACUACAGAAAUGUAGUUGACGAGGAGGAGGUUUAUAUAAUUUUCGGAGGAUGCCUCCAAA [C11U C50A G51U C61A]	9.9e-05 ± 3.3e-05 s⁻¹
AUAAAAGCGCCAGUACUACAGAAAUGUAGUUGACGAGGACGAGGUUUAUCGAAUUUUCGGCGGGUGCCUCCAAA [A14U G40C A64G]	6.98e-05 ± 1.7e-05 s⁻¹
AUAAAAGCGCCAGAACUACAGAAAUGUAGUGGACGAGGAUGAGGUUUAUCGAAUUUUCGACGGAUGCCUCCAAA [U31G G40U G60A]	< 1e-05 s⁻¹
AUAAAAGCGCCAGAACUACAGAAAUGUAGUUAACGAGGAGGAGGUUUAACGAAUUUUCGGCGGAGGCCUCCAAA [G32A U49A U65G]	< 1e-05 s⁻¹
AUAAAAGCGCCAGUACUACAGAAAUGUAGUUGCCGAGGAGGAGGUUUAUCGAAUGUUCGGCGGAUGCCUCCAAA [A14U A33C U55G]	7.4e-05 ± 2.1e-05 s⁻¹
AUAAAAGCGCCAGAACUACAGAAAUGUAGUUGACGUGGAUGAGGUUUAUCGAAUUUUCGGCGGCUGCCUCCAAA [A36U G40U A64C]	< 1e-05 s⁻¹

Variants of: B1
Assay: self-cleavage kobs at 10000 uM GlcN6P; higher = faster cleavage; RNA array
Details: with glucosamine-6-phosphate
Method in brief: as §1

Variant	self-cleavage kobs at 10000 uM GlcN6P
AUAAAAGCGCCAGAACUACAGAAAUGUAGUUGACUAGGAGUAGGUUUAUCGAAUUUUCGGCAGAUGCCUCCAAA [G35U G41U G62A]	< 1e-05 s⁻¹
AUAAAAGCGCCAGAACUACAGAAAUGUAGUUGACGAGGGUGAGGUUUAUCGAAUUAUCGGCGGAUGCCUCCAAA [A39G G40U U56A]	0.00056 ± 0.00013 s⁻¹
